According to the Immune Epitope Database (IEDB):
pKd: −log10 of the molar value. Each block holds one sequence with its values, some of them ahead of it.

Columns and labels:
HLA-C*03:03 = test: IEDB peptide-MHC binding, purified MHC/direct/fluorescence; filed as Kd, often an IC50 or EC50 that approximates it; ≥ and ≤ were set here for values at or beyond the usual limits of such assays
HLA-A*31:01 [1] = test: IEDB peptide-MHC binding, purified MHC/competitive/fluorescence; filed as Kd, often an IC50 or EC50 that approximates it; ≥ and ≤ were set here for values at or beyond the usual limits of such assays
HLA-A*03:01 [2] = test: IEDB peptide-MHC binding, purified MHC/direct/fluorescence; filed as Kd, often an IC50 or EC50 that approximates it; ≥ and ≤ were set here for values at or beyond the usual limits of such assays
HLA-A*11:01 [3] = test: as above
HLA-A*02:01 [4] = test: IEDB peptide-MHC binding, purified MHC/competitive/fluorescence; filed as Kd, often an IC50 or EC50 that approximates it; ≥ and ≤ were set here for values at or beyond the usual limits of such assays
HLA-A*02:16 [5] = test: as above
HLA-B*57:01 [6] = test: as above
HLA-A*69:01 [7] = test: as above
HLA-A*11:01 [8] = test: as above; settings: source organism: Vaccinia virus Copenhagen
HLA-B*15:01 [9] = test: as above
HLA-B*15:17 = test: IEDB peptide-MHC binding, purified MHC/direct/fluorescence; filed as Kd, often an IC50 or EC50 that approximates it; ≥ and ≤ were set here for values at or beyond the usual limits of such assays; settings: source organism: Camelpox virus M-96
HLA-B*46:01 [10] = test: as above
HLA-B*58:01 = test: as above; settings: source organism: Camelpox virus M-96
HLA-B*48:01 = test: as above; settings: source organism: Camelpox virus M-96
HLA-A*02:01 [11] = test: as above
HLA-A*01:01 = test: as above; settings: source organism: Camelpox virus M-96
HLA-B*40:01 = test: as above; settings: source organism: Camelpox virus M-96
HLA-B*08:02 = test: as above; settings: source organism: Variola virus
HLA-A*31:01 [12] = test: as above; settings: source organism: Camelpox virus M-96
HLA-B*27:05 = test: as above; settings: source organism: Camelpox virus M-96
HLA-A*03:01 [13] = test: IEDB peptide-MHC binding, purified MHC/competitive/fluorescence; filed as Kd, often an IC50 or EC50 that approximates it; ≥ and ≤ were set here for values at or beyond the usual limits of such assays
HLA-A*26:01 [14] = test: IEDB peptide-MHC binding, purified MHC/direct/fluorescence; filed as Kd, often an IC50 or EC50 that approximates it; ≥ and ≤ were set here for values at or beyond the usual limits of such assays; settings: source organism: Brucella suis 1330
HLA-B*18:01 = test: as above; settings: source organism: Brucella suis 1330
HLA-B*57:01 [15] = test: as above; settings: source organism: Brucella suis 1330
HLA-A*02:19 [16] = test: as above; settings: source organism: Brucella suis 1330
HLA-B*51:01 [17] = test: as above; settings: source organism: Brucella suis 1330
HLA-A*02:16 [18] = test: as above; settings: source organism: Brucella suis 1330
HLA-A*02:12 [19] = test: as above; settings: source organism: Brucella suis 1330
HLA-B*15:01 [20] = test: as above; settings: source organism: Brucella suis 1330
HLA-A*23:01 = test: IEDB peptide-MHC binding, purified MHC/competitive/fluorescence; filed as Kd, often an IC50 or EC50 that approximates it; ≥ and ≤ were set here for values at or beyond the usual limits of such assays
HLA-A*26:01 [21] = test: as above; settings: source organism: Entamoeba histolytica HM-1:IMSS
HLA-B*46:01 [22] = test: as above; settings: source organism: Entamoeba histolytica HM-1:IMSS
HLA-A*68:02 = test: as above; settings: source organism: Entamoeba histolytica HM-1:IMSS
HLA-A*02:19 [23] = test: as above; settings: source organism: Entamoeba histolytica HM-1:IMSS
HLA-A*02:11 = test: as above; settings: source organism: Entamoeba histolytica HM-1:IMSS
HLA-B*51:01 [24] = test: as above; settings: source organism: Entamoeba histolytica HM-1:IMSS
HLA-B*27:03 = test: as above; settings: source organism: Entamoeba histolytica HM-1:IMSS
HLA-A*02:12 [25] = test: as above; settings: source organism: Entamoeba histolytica HM-1:IMSS
HLA-B*39:01 = test: as above; settings: source organism: Entamoeba histolytica HM-1:IMSS
HLA-A*69:01 [26] = test: IEDB peptide-MHC binding, purified MHC/direct/fluorescence; filed as Kd, often an IC50 or EC50 that approximates it; ≥ and ≤ were set here for values at or beyond the usual limits of such assays; settings: source organism: Marburg virus - Musoke, Kenya, 1980
[27] = source organism: Coxiella burnetii RSA 493
[28] = source organism: Vaccinia virus Copenhagen
[29] = source organism: Camelpox virus M-96
[30] = source organism: Escherichia coli 536
[31] = source organism: Influenza A virus (A/Goose/Hong Kong/385.3/2000(H5N1))
[32] = source organism: Brucella suis 1330
[33] = source organism: Mycobacterium tuberculosis variant bovis BCG str. Pasteur 1173P2
[34] = source organism: Mycobacterium tuberculosis
[35] = source organism: Giardia lamblia ATCC 50803
[36] = source organism: Entamoeba histolytica HM-1:IMSS

Sequence: DAMENPLSL
pKd (HLA-C*03:03; source organism: Leishmania donovani): 6.20

Sequence: DVNGIRKPK
pKd (HLA-A*31:01 [1]; source organism: Orthohantavirus dobravaense): ≤ 4.70
pKd (HLA-A*03:01 [2]; source organism: Amur virus): ≤ 4.70
pKd (HLA-A*11:01 [3]; source organism: Amur virus): ≤ 4.70

Sequence: FLFLYWPHY
pKd (HLA-A*02:01 [4]; [27]): 6.20
pKd (HLA-A*02:16 [5]; [27]): 5.76

Sequence: FTENGPWMY
pKd (HLA-B*57:01 [6]; [28]): ≤ 4.70
pKd (HLA-A*69:01 [7]; [28]): ≤ 4.70
pKd (HLA-A*11:01 [8]): ≤ 4.70
pKd (HLA-B*15:01 [9]; [28]): ≤ 4.70
pKd (HLA-B*15:17): 8.28
pKd (HLA-B*46:01 [10]; [29]): ≤ 4.70
pKd (HLA-B*58:01): ≤ 4.70
pKd (HLA-B*48:01): ≤ 4.70
pKd (HLA-A*02:01 [11]; [29]): ≤ 4.70
pKd (HLA-A*01:01): 8.57
pKd (HLA-B*40:01): ≤ 4.70
pKd (HLA-B*08:02): ≤ 4.70
pKd (HLA-A*31:01 [12]): ≤ 4.70
pKd (HLA-B*27:05): ≤ 4.70
pKd (HLA-A*03:01 [2]; [29]): ≤ 4.70

pKd (HLA-A*31:01 [1]; [30]): 8.07
pKd (HLA-A*03:01 [13]; [30]): 7.82
Sequence: GMSSRAIAR

Sequence: IIAARNIVR
pKd (HLA-A*31:01 [1]; source organism: Influenza A virus H3N2): 8.44
pKd (HLA-A*03:01 [2]; [31]): 5.81
pKd (HLA-A*11:01 [3]; [31]): ≤ 4.70

Sequence: MRIGSMATL
pKd (HLA-A*26:01 [14]): ≤ 4.70
pKd (HLA-B*18:01): ≤ 4.70
pKd (HLA-B*46:01 [10]; [32]): ≤ 4.70
pKd (HLA-B*57:01 [15]): ≤ 4.70
pKd (HLA-A*02:19 [16]): ≤ 4.70
pKd (HLA-B*51:01 [17]): ≤ 4.70
pKd (HLA-A*02:01 [11]; [32]): ≤ 4.70
pKd (HLA-A*02:16 [18]): ≤ 4.70
pKd (HLA-A*02:12 [19]): ≤ 4.70
pKd (HLA-A*03:01 [2]; [32]): ≤ 4.70
pKd (HLA-B*15:01 [20]): ≤ 4.70

Sequence: RLNFFTPTK
pKd (HLA-A*31:01 [1]; [33]): 8.64
pKd (HLA-A*03:01 [2]; [34]): 8.23
pKd (HLA-A*11:01 [3]; [34]): 8.51

Sequence: RVHSFFIQY
pKd (HLA-A*31:01 [1]; [35]): 6.79
pKd (HLA-A*03:01 [2]; [35]): 7.17
pKd (HLA-A*11:01 [3]; [35]): ≥ 9.00

Sequence: SSFQDILLR
pKd (HLA-A*31:01 [1]; source organism: Influenza A virus (A/X-31(H3N2))): 6.51
pKd (HLA-A*03:01 [2]; source organism: Influenza A virus (A/Memphis/14/1998(H3N2))): ≤ 4.70

pKd (HLA-A*23:01; source organism: Escherichia coli F11): 7.18
Sequence: TFYAEFPKK

pKd (HLA-A*31:01 [1]; [30]): 7.25
pKd (HLA-A*03:01 [13]; [30]): 5.55
Sequence: TVKRYLQAK

Sequence: VAYHFHEPL
pKd (HLA-C*03:03; [33]): ≥ 9.00

Sequence: WAKLLKQKW
pKd (HLA-A*26:01 [21]): ≤ 4.70
pKd (HLA-B*46:01 [22]): ≤ 4.70
pKd (HLA-A*68:02): ≤ 4.70
pKd (HLA-B*57:01 [6]; [36]): 6.64
pKd (HLA-A*02:19 [23]): ≤ 4.70
pKd (HLA-A*69:01 [7]; [36]): ≤ 4.70
pKd (HLA-A*02:11): ≤ 4.70
pKd (HLA-B*51:01 [24]): ≤ 4.70
pKd (HLA-A*02:01 [4]; [36]): ≤ 4.70
pKd (HLA-A*02:16 [5]; [36]): ≤ 4.70
pKd (HLA-B*27:03): ≤ 4.70
pKd (HLA-A*02:12 [25]): ≤ 4.70
pKd (HLA-A*03:01 [13]; [36]): ≤ 4.70
pKd (HLA-B*39:01): ≤ 4.70
pKd (HLA-B*15:01 [9]; [36]): ≤ 4.70

Sequence: WLDSVIQYL
pKd (HLA-A*69:01 [26]): 6.02
pKd (HLA-A*02:01 [11]; source organism: Marburg virus - Musoke, Kenya, 1980): 6.84
pKd (HLA-C*03:03; source organism: Orthomarburgvirus marburgense): 6.62

Sequence: WYMRALYQK
pKd (HLA-A*23:01; [36]): 6.41
